Laboratory results taken from article PMC4091835.

Assays:
[1] = biological target: IRSp53 construct BAR–SH3 (human); experiment: ITC
[2] = biological target: IRSp53 BAR–SH3 double mutant P278D P281D (human); experiment: ITC
[3] = biological target: Eps8–IRSp53 complex (BAR–SH3 FRET reporter saturated with Eps8) (human) (UniProt Q12929); experiment: other fluorescence titration
[4] = biological target: BAR–SH3 FRET reporter (IRSp53 construct BAR–SH3 S452C, labelled with fluorescein maleimide and rhodamine maleimide) (human); experiment: other fluorescence titration
[5] = biological target: Cdc42_(G12V)–IRSp53 complex (BAR–SH3 FRET reporter titrated first with GMP-PNP–Cdc42_(G12V)) (human) (UniProt P60953); experiment: other fluorescence titration

Human Eps8, sequence (Q12929 whole entry): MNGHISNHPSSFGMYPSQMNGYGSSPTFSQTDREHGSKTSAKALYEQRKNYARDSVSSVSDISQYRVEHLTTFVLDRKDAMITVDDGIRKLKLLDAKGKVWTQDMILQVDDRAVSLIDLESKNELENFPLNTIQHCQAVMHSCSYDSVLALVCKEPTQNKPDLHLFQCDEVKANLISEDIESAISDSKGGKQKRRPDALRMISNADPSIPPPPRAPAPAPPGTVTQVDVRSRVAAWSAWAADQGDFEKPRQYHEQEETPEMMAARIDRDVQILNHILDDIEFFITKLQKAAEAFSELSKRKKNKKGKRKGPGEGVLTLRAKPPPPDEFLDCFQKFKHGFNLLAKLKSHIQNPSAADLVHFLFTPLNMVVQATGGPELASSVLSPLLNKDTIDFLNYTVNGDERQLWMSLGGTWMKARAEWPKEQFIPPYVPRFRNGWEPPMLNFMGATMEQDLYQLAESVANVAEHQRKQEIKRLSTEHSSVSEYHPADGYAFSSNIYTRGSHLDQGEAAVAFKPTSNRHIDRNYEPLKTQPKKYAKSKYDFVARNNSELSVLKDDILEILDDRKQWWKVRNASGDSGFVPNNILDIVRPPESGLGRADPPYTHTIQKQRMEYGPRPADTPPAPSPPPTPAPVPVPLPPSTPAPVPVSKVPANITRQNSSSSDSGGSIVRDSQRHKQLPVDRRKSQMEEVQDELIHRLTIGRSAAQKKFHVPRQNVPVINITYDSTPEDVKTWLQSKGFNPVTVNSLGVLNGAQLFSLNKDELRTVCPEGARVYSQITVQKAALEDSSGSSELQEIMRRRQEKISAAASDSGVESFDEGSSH

## Human Cdc42 residues 1–178, constitutively active mutant G12V (from UniProt P60953 1-178) (domain or fragment)
[1]
  Kd: 4.7 µM
[2]
  Kd: 10.7 µM
[3]
  Kd: 10.7 µM
[4]
  Kd: 2.4 µM

## Human Eps8 (from UniProt Q12929 1-822) (natural protein)
[5]
  Kd: 1.1 µM
